Consider one molecule from PMC6153294 (The Journal of Biological Chemistry, 2018).

In the experiment the target is T1, recombinant FGFR1c extracellular domain protein (Homo sapiens, UniProt P11362).
T1 construct: FGF receptor 1, 'c' splice isoform, human, extracellular domain; also called human FGFR1c
Briefly: SPR; kinetic-binding assay on Biacore T200: His-tagged human β-Klotho and FGFR1c captured (about 40 RU and 60 RU) on immobilised mouse anti-His antibody (CM5); 39F7 (100 nM) and FGF21 (500 nM) injected in PBS, 0.1 mg/ml BSA, 0.005% Surfactant P20. The note with it: both partners purified. (SPR reads the build-up and loss of mass on a sensor chip optically.)

T1 sequence (P11362 22-376): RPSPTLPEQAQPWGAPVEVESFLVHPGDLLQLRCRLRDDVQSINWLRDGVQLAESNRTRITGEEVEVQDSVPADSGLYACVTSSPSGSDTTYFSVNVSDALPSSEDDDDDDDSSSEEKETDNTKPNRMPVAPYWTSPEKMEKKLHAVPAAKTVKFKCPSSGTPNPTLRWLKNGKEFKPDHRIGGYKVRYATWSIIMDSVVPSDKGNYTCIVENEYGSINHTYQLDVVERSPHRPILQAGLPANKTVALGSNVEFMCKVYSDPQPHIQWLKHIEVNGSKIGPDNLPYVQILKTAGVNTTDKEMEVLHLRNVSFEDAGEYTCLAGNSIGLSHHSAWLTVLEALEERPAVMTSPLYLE

B1: 39F7 agonistic monoclonal antibody against β-Klotho (full IgG) (antibody, V domains shown)
VH: QVQLVESGGGVVQPGRSLRLSCAASGFTFSNYGIHWVRQAPGKGLEWVAVIWYDGSIKYYADSVKGRFTISRDNSKNTLYLQMNSLRAEDTAVYYCARDRAAAGLHYYYGMDVWGQGTTVTVSS
VL: not shown
notes: Identified from an immunisation campaign in XenoMouse with a complex of β-Klotho and FGFR1c; also called mAb 39F7; 39F7 IgG; copies: 2 + 2
Regarding B1, the binding result is recorded as “no binding (tested: 100 nM)”.
